Molecular target: DIP-α^Nectin1 chimera (human | Drosophila) (UniProt Q15223)
Assay: SPR

Kd: < 5 mM
Substance: Dpr10^Nectin3 chimera (from UniProt Q9NQS3 58-167)

From publication PMC7501880
